Data taken from paper PMC3695229.

Assays:
[1] = target: P4-mZP (17mer peptide of murine TGFR-3, residues 732-748) (mouse) (UniProt O88393); test: SPR; ProteOn XPR36; biotinylated peptides immobilised on neutravidin (300-600 RU), TGF-β2 as analyte; 25°C, HBS150 (10 mM HEPES pH 7.4, 150 mM NaCl, 3.4 mM EDTA, 0.005% Tween 20); kinetic fit 1:1 Langmuir with or without mass transfer; avidity of dimeric TGF-β2 expected
[2] = target: P1-mZP (C-terminus mimetic peptide of murine TGFR-3-ZP, residues 735-782) (mouse) (UniProt O88393); test: as above
[3] = target: P2-hZP (C-terminus mimetic peptide of human TGFR-3, residues 737-788) (human) (UniProt Q03167); test: as above
[4] = target: P5-hZP (17mer peptide of human TGFR-3, residues 734-750) (human) (UniProt Q03167); test: as above
[5] = target: TGF-β3 (Homo sapiens) (UniProt P10600); conditions: cited from earlier work
[6] = target: TGF-β2 (Homo sapiens) (UniProt P61812); conditions: cited from earlier work
[7] = target: TGF-β1 (Homo sapiens) (UniProt P01137); conditions: cited from earlier work
[8] = target: TGFR-3-ZP(ΔC) (mouse) (UniProt O88393); test: SEC; analytical SEC of the ligand-free protein on Superdex 200 10/300, 4°C, 0.5 ml/min; apparent molecular weight against standards

Chain of P2-hZP (C-terminus mimetic peptide of human TGFR-3, residues 737-788) (human) (Q03167 737-788): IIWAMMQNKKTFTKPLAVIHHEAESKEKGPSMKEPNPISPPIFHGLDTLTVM
Chain of TGFR-3 membrane-proximal ectodomain C-terminal half of ectodomain (P26342 410-781): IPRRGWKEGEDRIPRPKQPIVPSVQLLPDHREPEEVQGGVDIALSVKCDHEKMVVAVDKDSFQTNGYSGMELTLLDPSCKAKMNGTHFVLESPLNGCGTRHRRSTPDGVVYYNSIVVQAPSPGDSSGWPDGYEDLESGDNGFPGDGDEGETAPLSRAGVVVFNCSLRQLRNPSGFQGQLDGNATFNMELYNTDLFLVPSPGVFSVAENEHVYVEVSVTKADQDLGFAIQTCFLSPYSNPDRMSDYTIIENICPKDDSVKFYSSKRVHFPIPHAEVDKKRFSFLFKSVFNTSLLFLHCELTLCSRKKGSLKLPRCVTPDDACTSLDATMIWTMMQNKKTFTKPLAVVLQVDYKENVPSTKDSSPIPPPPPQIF
Chain of P1-mZP (C-terminus mimetic peptide of murine TGFR-3-ZP, residues 735-782) (mouse) (O88393 735-782): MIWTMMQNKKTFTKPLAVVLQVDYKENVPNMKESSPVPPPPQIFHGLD
Chain of TGF-β1 (Homo sapiens) (P01137 279-390): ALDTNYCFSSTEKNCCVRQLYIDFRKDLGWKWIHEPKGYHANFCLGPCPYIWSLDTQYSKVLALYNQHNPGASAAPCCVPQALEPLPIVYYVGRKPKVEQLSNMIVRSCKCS
Chain of TGF-β3 (Homo sapiens) (P10600 301-412): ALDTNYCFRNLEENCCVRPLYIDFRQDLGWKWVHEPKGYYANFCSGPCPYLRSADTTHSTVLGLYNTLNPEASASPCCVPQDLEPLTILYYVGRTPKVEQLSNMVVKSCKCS
Chain of TGF-β2 (Homo sapiens) (P61812 303-414): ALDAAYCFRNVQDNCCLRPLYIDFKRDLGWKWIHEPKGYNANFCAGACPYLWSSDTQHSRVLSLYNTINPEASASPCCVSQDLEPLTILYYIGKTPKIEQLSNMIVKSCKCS

Substance: human TGF-β2 (ligand)
- Kd [1]: 192 nM
- koff [1]: 0.02 s⁻¹
- kon [1]: 110000 M⁻¹ s⁻¹
- Kd [2]: 7.9 nM
- koff [2]: 0.029 s⁻¹
- kon [2]: 5.2e+06 M⁻¹ s⁻¹
- Kd [3]: 15 nM
- koff [3]: 0.044 s⁻¹
- kon [3]: 4.4e+06 M⁻¹ s⁻¹
- Kd [4]: 353 nM
- koff [4]: 0.029 s⁻¹
- kon [4]: 79000 M⁻¹ s⁻¹

Substance: TGFR-3 membrane-proximal ectodomain C-terminal half of ectodomain (from UniProt P26342)
- Kd [5]: 5800 nM
- Kd [6]: 2600 nM
- Kd [7]: 9700 nM

Substance: TGFR-3-ZP(ΔC) (from UniProt O88393 438-734) (domain or fragment)
- stoichiometry N [8]: 2
